Experimental findings from patent US20100255008A1 are described below.

In the assay the target is Mouse soluble TWEAK (mouse) (UniProt O54907). In words: receptor interaction ELISA: antibody pre-incubated with mouse soluble TWEAK, binding to coated mouse Fn14:Fc.

B1: Antibody 15 (antibody, V domains shown)
VH: QVQLQESGPGLVKPSETLSLTCAVSGYSIRSGYWWSWIRQPPGKGLEWIGQIYNKGNTDNNPALKSRVTISVDTSKNQFSLKLSSVTAADTAVYYCARVFWDDAYFDVWGQGTMVTVSS
VL: EIVLTQSPATLSLSPGERATLSCKASQSVSIGPIHLMHWYQQKPGQAPRLLIYGASNPESGIPARFSGSGSGTDFTLTISSLEPEDFAVYYCQQGKESPRTFGQGTKLEIK
B1 returned an IC50 of 5 ng/mL.

B2: Antibody 19 (antibody, V domains shown)
VH: QVQLQESGPGLVKPSETLSLTCAVSGYSIRSGYWWSWIRQQPGKGLEWIGQIYNKGNTDNNPALKSQVTISVDTSKNQFSLKLSSVTAADTAVYYCARVFWDDAYFDVWGQGTMVTVSS
VL: EIVLTQSPATLSLSPGERATLSCKASQSVSIGPIHLMHWYQQKPGQAPRLLIYGASNPESGIPARFSGSGSGTDFTLTISSLEPEDFAVYYCQQGKESPRTFGQGTKLEIK
With B2, the IC50 was found to be 7 ng/mL.

B3: Antibody 18 (antibody, V domains shown)
VH: QVQLQESGPGLVKPSETLSLTCTVSGYSIRSGYWWSWIRQPPGKGLEWIGQIYNKGNTDNSPSLKSRVTISVDTSKNQFSLKLSSVTAADTAVYYCARVFWDDAYFDVWGQGTMVTVSS
VL: EIVLTQSPATLSLSPGERATLSCKASQSVSIGPIHLMHWYQQKPGQAPRLLIYGASNPESGIPARFSGSGSGTDFTLTISSLEPEDFAVYYCQQGKESPRTFGQGTKLEIK
B3 showed an IC50 of 6 ng/mL.

B4: Antibody 23 (antibody, V domains shown)
VH: QVQLQESGPGLVKPSETLSLTCTVSGYSIRSGYWWSWIRQPPGKGLEWIGQIYNKGNTDNNPALKSRVTISVDTSKNQFSLKLSSVTAADTAVYYCARVFWDDAYFDVWGQGTMVTVSS
VL: EIVLTQSPGTLSLSPGERATLSCKASQSVSIGPIHLMHWYQQKPGQAPRLLIYGASNPESGIPDRFSGSGSGTDFTLTISRLEPEDFAVYYCQQGKESPRTFGQGTKLEIK
The molecule B4 came in with an IC50 of 6 ng/mL.

B5: Antibody 26 (antibody, V domains shown)
VH: QVQLQESGPGLVKPSETLSLTCAVSGYSIRSGYWWSWIRQQPGKGLEWIGQIYNKGNTDNSPSLKSQVTISVDTSKNQFSLKLSSVTAADTAVYYCARVFWDDAYFDVWGQGTMVTVSS
VL: EIVLTQSPGTLSLSPGERATLSCKASQSVSIGPIHLMHWYQQKPGQAPRLLIYGASNPESGIPDRFSGSGSGTDFTLTISRLEPEDFAVYYCQQGKESPRTFGQGTKLEIK
As to B5, the IC50 was 36 ng/mL.

B6: Antibody 25 (antibody, V domains shown)
VH: QVQLQESGPGLVKPSETLSLTCAVSGYSIRSGYWWSWIRQQPGKGLEWIGQIYNKGNTDNNPALKSQVTISVDTSKNQFSLKLSSVTAADTAVYYCARVFWDDAYFDVWGQGTMVTVSS
VL: EIVLTQSPGTLSLSPGERATLSCKASQSVSIGPIHLMHWYQQKPGQAPRLLIYGASNPESGIPDRFSGSGSGTDFTLTISRLEPEDFAVYYCQQGKESPRTFGQGTKLEIK
Molecule B6 displayed a half-inhibitory concentration (IC50) of 18 ng/mL.

B7: Antibody 24 (antibody, V domains shown)
VH: QVQLQESGPGLVKPSETLSLTCTVSGYSIRSGYWWSWIRQPPGKGLEWIGQIYNKGNTDNSPSLKSRVTISVDTSKNQFSLKLSSVTAADTAVYYCARVFWDDAYFDVWGQGTMVTVSS
VL: EIVLTQSPGTLSLSPGERATLSCKASQSVSIGPIHLMHWYQQKPGQAPRLLIYGASNPESGIPDRFSGSGSGTDFTLTISRLEPEDFAVYYCQQGKESPRTFGQGTKLEIK
Regarding B7, the IC50 is 8 ng/mL.

B8: Antibody 17 (antibody, V domains shown)
VH: QVQLQESGPGLVKPSETLSLTCTVSGYSIRSGYWWSWIRQPPGKGLEWIGQIYNKGNTDNNPALKSRVTISVDTSKNQFSLKLSSVTAADTAVYYCARVFWDDAYFDVWGQGTMVTVSS
VL: EIVLTQSPATLSLSPGERATLSCKASQSVSIGPIHLMHWYQQKPGQAPRLLIYGASNPESGIPARFSGSGSGTDFTLTISSLEPEDFAVYYCQQGKESPRTFGQGTKLEIK
B8: the IC50 was determined as 6 ng/mL.

B9: Antibody 20 (antibody, V domains shown)
VH: QVQLQESGPGLVKPSETLSLTCAVSGYSIRSGYWWSWIRQQPGKGLEWIGQIYNKGNTDNSPSLKSQVTISVDTSKNQFSLKLSSVTAADTAVYYCARVFWDDAYFDVWGQGTMVTVSS
VL: EIVLTQSPATLSLSPGERATLSCKASQSVSIGPIHLMHWYQQKPGQAPRLLIYGASNPESGIPARFSGSGSGTDFTLTISSLEPEDFAVYYCQQGKESPRTFGQGTKLEIK
B9 had an IC50 of 14 ng/mL.

B10: Antibody 21 (antibody, V domains shown)
VH: QVQLQESGPGLVKPSETLSLTCAVSGYSIRSGYWWSWIRQPPGKGLEWIGQIYNKGNTDNNPALKSRVTISVDTSKNQFSLKLSSVTAADTAVYYCARVFWDDAYFDVWGQGTMVTVSS
VL: EIVLTQSPGTLSLSPGERATLSCKASQSVSIGPIHLMHWYQQKPGQAPRLLIYGASNPESGIPDRFSGSGSGTDFTLTISRLEPEDFAVYYCQQGKESPRTFGQGTKLEIK
In the case of B10, the IC50 came out at 5 ng/mL.

B11: Antibody 22 (antibody, V domains shown)
VH: QVQLQESGPGLVKPSETLSLTCAVSGYSIRSGYWWSWIRQPPGKGLEWIGQIYNKGNTDNSPSLKSRVTISVDTSKNQFSLKLSSVTAADTAVYYCARVFWDDAYFDVWGQGTMVTVSS
VL: EIVLTQSPGTLSLSPGERATLSCKASQSVSIGPIHLMHWYQQKPGQAPRLLIYGASNPESGIPDRFSGSGSGTDFTLTISRLEPEDFAVYYCQQGKESPRTFGQGTKLEIK
In the case of B11, the IC50 is 5 ng/mL.

B12: Antibody 16 (antibody, V domains shown)
VH: QVQLQESGPGLVKPSETLSLTCAVSGYSIRSGYWWSWIRQPPGKGLEWIGQIYNKGNTDNSPSLKSRVTISVDTSKNQFSLKLSSVTAADTAVYYCARVFWDDAYFDVWGQGTMVTVSS
VL: EIVLTQSPATLSLSPGERATLSCKASQSVSIGPIHLMHWYQQKPGQAPRLLIYGASNPESGIPARFSGSGSGTDFTLTISSLEPEDFAVYYCQQGKESPRTFGQGTKLEIK
In turn, B12 had an IC50 of 7 ng/mL.

B13: TW212 (antibody)
VL: DIVLTQSPAYLTMSPGQTTTISCKASQSVSIGPIHLMHWYQQKPGQPPRLLIYGASNPESGVPARFSGSGSGTDFTLTIHPVEADDAATYFCQQGKESPRTFGPGTKLEITRADAKPTVSIFPPSSEQLGTGSATLVCFVNNFYPKDINVKWKVDGSEKRDGVLQSVTDQDSKDSTYSLSSTLSLTKADYERHNLYTCEVTHKTSTAAIVKTLNRNEC
VH: QVQLQESGPGLLKPAQSLSLTCTVTGYSIRSGYWWSWIRQQPGKGLEWMGQIYNKGNTDNNPSLKSQITMTVDTSKNQFFLRLRSVTTEDTAVYYCARVFWDDAYFDVWGQGIQVTVSSATTTAPSVYPLAPACDSTTSTTNTVTLGCLVKGYFPEPVTVSWNSGALTSGVHTFPSVLHSGLYSLSSSVTVPSSTWPSQTVTCNVAHPASSTKVDKKIVPGDGSGCKPCTCPGPEVSSVFIFPPKPKDVLTISLSPKVTCVVVDISQDDPEVQFSWFIDGKEVHTAVTQPREEQFNSTYRMVSVLPILHQDWLNGKEFKCKVNSPAFPVPIEKTISKRRGQLQVPQVYTMPPPKEQLTQSQVSLTCMIKGFYPEDIDVAWQKNGQPEQSFKNTPPVLDTDETYFLYSKLDVKKDDWEKGDTFTCSVVHEALHNHHTEKTLSQRPGK
B13: the IC50 is 4.6 ng/mL.

B14: TW205 (antibody, V domains shown)
VH: QIHLQESGLGLVKPSQSLTLTCSVTGFSITTPDYSWHWIRQFPGQTLEWMGFLYYEGDTYYNPSLKSRISIARDASKNQFFLQLKSVTTEDTATYFCVRRKYSGYGNWFAYWGQGTQVTVSS
VL: QPVLTQAPSASASLRASVKLTCTLSSQHSTYYIEWYQQHPDKAPRYVMYVDSDGSHIKGDGVPDRFSGSSSGARRYLSISNLQPEDEAIYHCGVYDSTAGAVFGSGTQLTVLG
Turning to B14, the IC50 was 5.1 ng/mL.

B15: TW202 (antibody, V domains shown)
VH: QLQLQESGLGLVKPSQSLTLTCSVTGFSITTPDYSWHWIRQLPGQTLEWMGFLYYEGDTYYNPSLKSRISIARDASKNQFFLQLKAVTTEDTATYFCARRKYSGYGNWFAYWGQGTLVTVSL
VL: QPVLTQSPSASASLRASVKLTCTLSSQHSTYYIEWYQQRPDKAPKYVMYLDSDGSHIKGDGIPDRFSGSSSGAHRYLSISNLQPEDEAIYHCGVYDSTAGAVFGSGTQLTVLG
B15 showed an IC50 of 9 ng/mL.
